Measured values as given in patent publication US12281147.

Experiments:
[1] = target: wild-type human IL-21R (human) (UniProt Q9HBE5); assay: AlphaSeq yeast mating assay, pH 5 media
[2] = target: wild-type human IL-21R (human) (UniProt Q9HBE5); assay: AlphaSeq yeast mating assay, pH 6 media
[3] = target: wild-type human IL-21R (human) (UniProt Q9HBE5); assay: AlphaSeq yeast mating assay, unbuffered media
[4] = target: human interleukin 21 receptor (IL-21R) (human) (UniProt Q9HBE5); assay: AlphaSeq yeast mating, pH 5 media
[5] = target: human interleukin 21 receptor (IL-21R) (human) (UniProt Q9HBE5); assay: AlphaSeq yeast mating, pH 6 media
[6] = target: human interleukin 21 receptor (IL-21R) (human) (UniProt Q9HBE5); assay: AlphaSeq yeast mating, unbuffered media
[7] = target: recombinant human IL-21R His tag (Acro Biosystems) (human) (UniProt Q9HBE5); assay: BLI

Row | Kd [1] | Kd [2] | Kd [3] | Substance | also measured
1 | 84 nM | 21 nM | 7500 nM | IL-21_D33Q (from UniProt Q9HBE4 32-152) (ligand) | –
2 | – | – | – | IL-21_D44N (from UniProt Q9HBE4 32-152) (ligand) | Kd [4]: 1200 nM; Kd [5]: 92 nM; Kd [6]: 60000 nM
3 | 41 nM | 16 nM | – | IL-21_E59S (from UniProt Q9HBE4 32-152) (ligand) | –
4 | 40 nM | 16 nM | 6300 nM | IL-21_E68R (from UniProt Q9HBE4 32-152) (ligand) | –
5 | – | 15 nM | 4700 nM | IL-21_E72I (from UniProt Q9HBE4 32-152) (ligand) | –
6 | 110 nM | 27 nM | 3500 nM | IL-21_I43M (from UniProt Q9HBE4 32-152) (ligand) | –
7 | – | – | – | IL-21_I45A (from UniProt Q9HBE4 32-152) (ligand) | Kd [5]: 25 nM; Kd [6]: 8400 nM
8 | – | – | – | IL-21_L120H (from UniProt Q9HBE4 32-152) (ligand) | Kd [4]: 34 nM
9 | 26 nM | 12 nM | 4400 nM | IL-21_L152H (from UniProt Q9HBE4 32-151) (ligand) | –
10 | 110 nM | – | 3100 nM | IL-21_M36T (from UniProt Q9HBE4 32-152) (ligand) | –
11 | 190 nM | – | 8000 nM | IL-21_N54K (from UniProt Q9HBE4 32-152) (ligand) | –
12 | – | 20 nM | 4400 nM | IL-21_N70H (from UniProt Q9HBE4 32-152) (ligand) | –
13 | 120 nM | 58 nM | 6500 nM | IL-21_P107Y (from UniProt Q9HBE4 32-152) (ligand) | –
14 | – | – | – | IL-21_Q145H (from UniProt Q9HBE4 32-152) (ligand) | Kd [4]: 1000 nM; Kd [5]: 54 nM; Kd [6]: 32000 nM
15 | – | – | – | IL-21_R34G (from UniProt Q9HBE4 32-152) (ligand) | Kd [4]: 6400 nM; Kd [5]: 150 nM; Kd [6]: 9900 nM
16 | – | – | – | IL-21_R34K (from UniProt Q9HBE4 32-152) (ligand) | Kd [4]: 390 nM; Kd [5]: 47 nM; Kd [6]: 14000 nM

Row | Kd [1] | Kd [2] | Kd [3] | Substance | also measured
17 | 6700 nM | 350 nM | 3400 nM | IL-21_R34Y (from UniProt Q9HBE4 32-152) (ligand) | –
18 | 81 nM | – | 3000 nM | IL-21_R139S (from UniProt Q9HBE4 32-152) (ligand) | –
19 | – | – | – | IL-21_S109K (from UniProt Q9HBE4 32-152) (ligand) | Kd [4]: 43 nM; Kd [5]: 26 nM; Kd [6]: 40000 nM
20 | 36 nM | 15 nM | 6000 nM | IL-21_S109R (from UniProt Q9HBE4 32-152) (ligand) | –
21 | – | – | – | IL-21_S142H (from UniProt Q9HBE4 32-152) (ligand) | Kd [4]: 51 nM; Kd [6]: 11000 nM
22 | – | – | – | IL-21_V53T (from UniProt Q9HBE4 32-152) (ligand) | Kd [4]: 9600 nM; Kd [6]: 30000 nM
23 | 190 nM | 85 nM | – | IL-21_W73Y (from UniProt Q9HBE4 32-152) (ligand) | –
24 | – | – | – | IL-21_human_D44P Fc fusion protein (from UniProt Q9HBE4 30-162) | Kd [7]: 1360 nM
25 | – | – | – | IL-21_human_F76M Fc fusion protein (from UniProt Q9HBE4 30-162) | Kd [7]: 11.8 nM
26 | – | – | – | IL-21_human_F79P Fc fusion protein (from UniProt Q9HBE4 30-162) | Kd [7]: 11.1 nM
27 | – | – | – | IL-21_human_I45G Fc fusion protein (from UniProt Q9HBE4 30-162) | Kd [7]: 12 nM
28 | – | – | – | IL-21_human_P108G Fc fusion protein (from UniProt Q9HBE4 30-162) | Kd [7]: 29 nM
29 | – | – | – | IL-21_human_R38K Fc fusion protein (from UniProt Q9HBE4 30-162) | Kd [7]: 313 nM
30 | – | – | – | IL-21_human_V53N Fc fusion protein (from UniProt Q9HBE4 30-162) | Kd [7]: 87.1 nM
31 | – | – | – | IL-21_human_V53T Fc fusion protein (from UniProt Q9HBE4 30-162) | Kd [7]: 7.86 nM
32 | – | – | – | IL-21_human_W73V Fc fusion protein (from UniProt Q9HBE4 30-162) | Kd [7]: 6.3 nM
